The supplement of paper PMC7877785
± gives the uncertainty stated by the source.

Assay: self-splicing fitness, log relative to wild type (ln ratio); higher = more splicing; Tetrahymena group I intron in knt gene, E. coli kanamycin selection, DiMSum; sequences stand for … in CUCUCU…GGAGGGAAAAGUUAUCAGGCAUGCACCUGGUAGCUAGUCUUUAAACCAAUAGAUUGCAUCGGUUUAAAAGGCAAGACCGUCAAAUUGCGGGAAAGGGGUCAACAGCCGUUCAGUACCAAGUCUCAGGGGAAACUUUGAGAUGGCCUUGCAAAGGGUAUGGUAAUAAGCUGACGGACAUGGUCCUAACCACGCAGCCAAGUCCUAAGUCAACAGAUCUUCUGUUGAUAUGGAUGCAGUUCACAGACUAAAUGUCGGUCGGGGAAGAUGUAUUCUUCUCAUAAGAUAUAGUCGGACCUCUCCUUAAUGGGAGCUAGCGGAUGAAGUGAUGCAACACUGGAGCCGCUGGGAACUAAUUUGUAUGCGAAAGUAUAUUGAUUAGUUUUGGAGUACUCGUGGUCG
How it was run: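 Six replicate transformations of E. coli BL21(DE3) with a pET-22b(+) library were grown overnight at 37°C or 30°C. The library randomised all eight P1ex-region intron nucleotides, the intron lying in the knt kanamycin-resistance gene, and plates were LB agar with or without 25 μg/mL kanamycin plus 100 μg/mL carbenicillin, 50 μM IPTG and 0.2% rhamnose. Pooled colonies were amplicon-sequenced on an Illumina HiSeq 2500, and fitness is the DiMSum error-weighted combination of wild-type-normalised replicate fold changes, kanamycin versus none.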

Row | Sequence | self-splicing fitness (ln) (30 °C) | self-splicing fitness (ln) (37 °C)
1 | CUCAAGCAAUAUUACGGAUU | -3.66 ± 0.17 | -2.81 ± 0.19
2 | CUCAAGCAAUAUUACGGCCC | -2.42 ± 0.41 | –
3 | CUCAAGCAAUAUUACGGGCG | -2.1 ± 0.086 | -1.34 ± 0.094
4 | CUCAAGCAAUAUUACGUACG | -1.02 ± 0.065 | -0.705 ± 0.088
5 | CUCAAGCAAUAUUACGUAGG | -0.955 ± 0.068 | -0.324 ± 0.11
6 | CUCAAGCAAUAUUACGUAUG | -2.91 ± 0.099 | -2.61 ± 0.12
7 | CUCAAGCAAUAUUACGUCCA | -2.66 ± 0.32 | -1.51 ± 0.27
8 | CUCAAGCAAUAUUACGUUGC | -4.05 ± 0.29 | -2.39 ± 0.21
9 | CUCCAGCAAUAUUACGAAUA | -3.91 ± 0.47 | -2.54 ± 0.28
10 | CUCCAGCAAUAUUACGACGA | -3.77 ± 0.26 | -2.5 ± 0.18
11 | CUCCAGCAAUAUUACGCCCU | -3.46 ± 0.34 | -2 ± 0.26
12 | CUCCAGCAAUAUUACGCGCA | -3.34 ± 0.31 | -2.56 ± 0.49
13 | CUCCAGCAAUAUUACGCGCU | -4.33 ± 0.26 | -2.2 ± 0.2
14 | CUCCAGCAAUAUUACGCUCA | -2.97 ± 0.17 | -2.31 ± 0.19
15 | CUCCAGCAAUAUUACGCUGG | -1.92 ± 0.23 | –
16 | CUCCAGCAAUAUUACGGACC | -3.65 ± 0.32 | -2.64 ± 0.44
17 | CUCCAGCAAUAUUACGGAGA | -3.61 ± 0.27 | -2.21 ± 0.21
18 | CUCCAGCAAUAUUACGGAGG | -3.04 ± 0.17 | -2.44 ± 0.13
19 | CUCCAGCAAUAUUACGGCCG | -1.3 ± 0.1 | -0.777 ± 0.14
20 | CUCCAGCAAUAUUACGGCGU | -3.61 ± 0.17 | -3.4 ± 0.23
21 | CUCCAGCAAUAUUACGGCUA | -3.19 ± 0.26 | -2.27 ± 0.2
22 | CUCCAGCAAUAUUACGGGCG | -1.74 ± 0.092 | -1.2 ± 0.13
23 | CUCCAGCAAUAUUACGGGGA | -3.46 ± 0.18 | -0.678 ± 0.1
24 | CUCCAGCAAUAUUACGGGGG | -3.56 ± 0.16 | -2.89 ± 0.19
25 | CUCCAGCAAUAUUACGGGUC | -3.88 ± 0.24 | -2.2 ± 0.22

Row | Sequence | self-splicing fitness (ln) (30 °C) | self-splicing fitness (ln) (37 °C)
26 | CUCCAGCAAUAUUACGGUCA | -2.86 ± 0.13 | -1.82 ± 0.13
27 | CUCCAGCAAUAUUACGGUUA | -3.03 ± 0.18 | -2.45 ± 0.16
28 | CUCCAGCAAUAUUACGUACC | -3.31 ± 0.29 | -1.19 ± 0.32
29 | CUCCAGCAAUAUUACGUAUC | -3.01 ± 0.16 | -2.73 ± 0.23
30 | CUCCAGCAAUAUUACGUCAC | -3.88 ± 0.26 | -2.69 ± 0.29
31 | CUCCAGCAAUAUUACGUUCG | -3.41 ± 0.13 | -2.39 ± 0.17
32 | CUCGAGCAAUAUUACGAAUG | -1.91 ± 0.14 | -1.15 ± 0.17
33 | CUCGAGCAAUAUUACGACGU | -3.11 ± 0.14 | -1.59 ± 0.14
34 | CUCGAGCAAUAUUACGAUCA | -2.04 ± 0.4 | –
35 | CUCGAGCAAUAUUACGCAAC | -3.47 ± 0.49 | -1.71 ± 0.31
36 | CUCGAGCAAUAUUACGCCGC | – | -2.12 ± 0.4
37 | CUCGAGCAAUAUUACGCCGG | -3.32 ± 0.43 | -1.17 ± 0.34
38 | CUCGAGCAAUAUUACGCCGU | – | -1.79 ± 0.26
39 | CUCGAGCAAUAUUACGCGCC | -2.53 ± 0.19 | -2.12 ± 0.37
40 | CUCGAGCAAUAUUACGCGCU | -3.66 ± 0.22 | -2.69 ± 0.23
41 | CUCGAGCAAUAUUACGGGAA | -3.85 ± 0.35 | -2.42 ± 0.23
42 | CUCGAGCAAUAUUACGGGAC | -3.8 ± 0.24 | -2.41 ± 0.27
43 | CUCGAGCAAUAUUACGGGAG | – | -1.11 ± 0.22
44 | CUCGAGCAAUAUUACGUAAG | -2.81 ± 0.17 | -1.26 ± 0.18
45 | CUCGAGCAAUAUUACGUCGG | -1.37 ± 0.15 | -0.674 ± 0.21
46 | CUCGAGCAAUAUUACGUUAA | -3.68 ± 0.2 | -2.53 ± 0.17
47 | CUCGAGCAAUAUUACGUUUA | -3.22 ± 0.41 | -3.05 ± 0.4
48 | CUCGAGCAAUAUUACGUUUG | -3.74 ± 0.24 | -2.11 ± 0.16
49 | CUCUAGCAAUAUUACGACGA | -2.13 ± 0.22 | -0.928 ± 0.16
